Measured values taken from article PMC9170038.

B1: Eterna 1282 (Exclusion - Tryptophan B) (ssRNA)
RNA: GGAUUGCGUUCGGCCGCCACUAGACUACAUUCCACGCCCGACCCGUUUUUAAGUGAUGUUUAAACUAGGACCGGGAACCGAUUUC
B2: Eterna 5956827 (Exclusion NG 2) (ssRNA)
RNA: UUUGUUUUGCAAGGAUAUGUUUAAUUUUAGUUUCCUUACACAUGAGGAUCACCCAUGUUAUACUUACAGAAGGUGCGUAAUUUU
B3: Eterna 7623315 (Exclusion - Theophylline A) (ssRNA)
RNA: AUUAUCAUGGUCAUAUAUAUUUCGUCAGAUACCAGACUAGAUAUAGUCCCUUGGCAGCUGUUACAUGAGGAUCACCCAUGUUAUA
B4: Eterna 7684249 (Exclusion - Tryptophan B) (ssRNA)
RNA: UUUAUAAUGUCGGCCGCCACUGGAUUAAUAUUUGUAUAAUCUAGUUCUGAGUGAUGUUUAGAGUCCAGGACCGGGACAUUUGUUA
B5: Eterna 7724662 (Same State - FMN B) (ssRNA)
RNA: GUAUCGCUAGGAGGAUAUUUCAAAUAACAAAUAAAUGGUUAUACGGAGUGAUGUUCCGAUUUACGGAAAGAAGGCCUAGUGAUAC
B6: Eterna 7691696 (Same State - Theophylline B) (ssRNA)
RNA: UGUCAUUGGUCUGAUACCAGAAGAUAAUCUGGAGUGAUGUUCCAAGUACGACAAAGUCGCUUCCCUUGGCAGCAGACCGAUGACU
B7: Eterna 6136258 (Same State NG 2) (ssRNA)
RNA: UAAUCUCAGAUAGGAUAUAUAGGAUAACUUAAGACCUAACAUGAGGAUCACCCAUGUGAUUAUUCGUAGAAGGAUCAUUGACCC
B8: Eterna 6063666 (Exclusion 4) (ssRNA)
RNA: UAUGUGUCAGGAUAUUGUUAAUUUAGUUGUUUGUAUUAGUUCGAGAAGGGACAUGAGGAUCACCCAUGUUGUUU
B9: Eterna 6002686 (Brourd's mod of Exclusion 4) (ssRNA)
RNA: UAACAAAUUGUCAGGAUAUCAGUCCCGGCCCAGAUUGAGAAGGGACAUGAGGAUCACCCAUGUAUGAUUCUCAG
B10: Eterna 7733368 (Same State - Tryptophan B) (ssRNA)
RNA: GGGUACAUCGCGGCCGCCACUUAUGUAAAUACAUGAGGAUCACCCAUGUCGAUGGAGACAUCGGUAAGGACCGGGUGAUGUACCG
B11: Eterna 7672552 (Same State - Tryptophan A) (ssRNA)
RNA: UAAGAAUAAGUAGCAGUGAUGUUGCUACUACGAGGACCGGUACGGCCGCCACUCGAGUCCUCGAAACAUCACUGAACGAGGAAUA
B12: Eterna 13224 (Sensor for hsa-mir-208a) (ssRNA)
RNA: ACCCAAAGUAUAUGGGAACAAGCUUUUUAACAUGAGGAUCACCCAUGUGCUCGUCUUAUAAGCAGUCGAAAGACUGC
B13: Eterna 7747481 (Same State - Arginine B) (ssRNA)
RNA: GCCGUAGAUUGAAGGAGCGACAUAAACGAUGUUCUGGUAGUGAUGUUACCUUAGCAGGCAUGUCAGGUAGGUCGCAAUCUACGGC
B14: Eterna 7730944 (Same State - Tryptophan A) (ssRNA)
RNA: UAAAACGCUUGAAUAACAAGCGAAAAUUCGCGAGGACCGGUACGGCCGCCACUCGCUAACUGCGAGUGAUGUUCGAUAAUAAAAU
B15: Eterna 11920 (Sensor v3, turn-off variant 2) (ssRNA)
RNA: UUUAAACUUACAAUCUUCGCUGGCAUGCUUGUGCCAGCUACAUGAGGAUCACCCAUGUUUUUUGCUCGUCUUAUUCU
B16: Eterna 6457817 (Inverted Small Loop Same State NG 3) (ssRNA)
RNA: GCGUAAUAGGUGUAGCUAGUCGUUCAAGAAGGGUGAAGAACAUGAGGAUCACCCAUGUGGUCUAUACAGGAUAUUGAUAUACGC
B17: Eterna 7612216 (Same State - Tryptophan B) (ssRNA)
RNA: GCUAGGUCAUCGGCCGCCACUAACGACGGUUCCAACAUGAGGAUCACCCAUGUGCCACAUGCGCAUAGGACCGGGAUGACCUAGC
B18: Eterna 7727988 (Exclusion - Theophylline B) (ssRNA)
RNA: GGGAACUCUUACGAUACCAGCCGGAGUGAUGUUCCGCGCUUGGACGUAGUAACCCGCACCGGCCCUUGGCAGCGUGGAUCUUAUA
B19: Eterna 7681766 (Exclusion - Tryptophan A) (ssRNA)
RNA: UGUGAACAAAAGUAGAGUGGACCACUAUAGCGAGGACCGGUACGGCCGCCACUCGUAUAUAAAUUCAGUGAUGUUGAAAAGAGCU

How the values were obtained:
[1] = system: Theophylline aptamer, RNA-MaP condition construct (RNA, aptamer) GGAAAGGCGAGGAUACCAGCGUUCGCGCCCUUGGCAGCCUCGCCAAAGAAACAACAACAACAAC; experiment: DMS chemical mapping; conditions: 80 mM KCl, 4 mM MgCl2; 100 mM Tris-HCl, pH 7.5, 37 °C
[2] = system: Theophylline aptamer, Light-up construct (RNA, aptamer) GGGAACGUCUCCGAGUAGGAGACGAAGGGAGAGUGGCAGCUUACAACCUGAAGGACGGGUCCCCAGUAAUAAUGAUACCAGGAACAAAAGUUCCCCUUGGCAGCAUCUGGGUUGAGUAGAGUGUGAGCAGGAAGUGGGCUGUUGCUUUUCCAAGCUUAUCGAGUAGAUAAGCAAAAAGAAACAACAACAACAAC; experiment: DMS chemical mapping; conditions: 5 mM MgCl2, 1x PBS, pH 6.1, 24 °C
[3] = target: T1, MS2 coat protein, dlFG mutant (Escherichia phage MS2, UniProt P03612, del68-81insG); experiment: 4 mM Mg2+; no ligand; RNA-MaP array; 100 mM Tris-HCl pH 7.5, 80 mM KCl, 4 mM MgCl2, 0.1 mg/mL BSA, 1 mM DTT, 0.01 mg/mL yeast tRNA, 0.01% Tween-20; protein 1.5 nM to 3 uM; 37 C (Table S3); conditions: chain copies: 2; label: tethered by stalled RNA polymerase
[4] = target: T1, MS2 coat protein, dlFG mutant; experiment: 4 mM Mg2+; FMN 200 uM; RNA-MaP array; 100 mM Tris-HCl pH 7.5, 80 mM KCl, 4 mM MgCl2, 0.1 mg/mL BSA, 1 mM DTT, 0.01 mg/mL yeast tRNA, 0.01% Tween-20; protein 1.5 nM to 3 uM; 37 C (Table S3); conditions: chain copies: 2; label: tethered by stalled RNA polymerase
[5] = target: T1, MS2 coat protein, dlFG mutant; experiment: 4 mM Mg2+; theophylline 2 mM; RNA-MaP array; 100 mM Tris-HCl pH 7.5, 80 mM KCl, 4 mM MgCl2, 0.1 mg/mL BSA, 1 mM DTT, 0.01 mg/mL yeast tRNA, 0.01% Tween-20; protein 1.5 nM to 3 uM; 37 C (Table S3); conditions: chain copies: 2; label: tethered by stalled RNA polymerase
[6] = target: T1, MS2 coat protein, dlFG mutant; experiment: 4 mM Mg2+; L-tryptophan 2.4 mM; RNA-MaP array; 100 mM Tris-HCl pH 7.5, 80 mM KCl, 4 mM MgCl2, 0.1 mg/mL BSA, 1 mM DTT, 0.01 mg/mL yeast tRNA, 0.01% Tween-20; protein 1.5 nM to 3 uM; 37 C (Table S3); conditions: chain copies: 2; label: tethered by stalled RNA polymerase
[7] = target: T1, MS2 coat protein, dlFG mutant; experiment: 4 mM Mg2+; miR-208a RNA 100 nM (AU…UUGU); RNA-MaP array; 100 mM Tris-HCl pH 7.5, 80 mM KCl, 4 mM MgCl2, 0.1 mg/mL BSA, 1 mM DTT, 0.01 mg/mL yeast tRNA, 0.01% Tween-20; protein 1.5 nM to 3 uM; 37 C (Table S3); conditions: chain copies: 2; label: tethered by stalled RNA polymerase

Molecule | Kd [3] [µM] | also measured
Cn1c(=O)c2[nH]cnc2n(C)c1=O |  | Kd [1]: 13.11 ± 9.21/-4.86 μM; Kd [2]: 239.54 ± 161.15/-96.27 μM
B1 | > 3 | 
B2 |  | Kd [4]: 0.094 µM
B3 |  | Kd [5]: 0.0458 µM
B4 | > 3 | 
B5 | > 3 | 
B6 | > 3 | 
B7 | 0.162 | 
B8 |  | Kd [4]: 0.0311 µM
B9 | 0.0935 | 
B10 |  | Kd [6]: 0.0193 µM
B11 | > 3 | 
B12 |  | Kd [7]: 0.0171 µM
B13 | > 3 | 
B14 | > 3 | 
B15 |  | Kd [7]: 0.095 µM
B16 | 0.607 | 
B17 |  | Kd [6]: 0.021 µM
B18 | > 3 | 
B19 | > 3 | 
